The target in the assay is purified extracellular moiety of SorCS1 (UniProt Q8WY21). Briefly: SPR; BIAcore 3000, CM5 chip; extracellular moiety of SorCS1 immobilised at about 50 fmol/mm^2; mature BDNF (50–200 nM) injected at 5 μl/min in 10 mM Hepes, 150 mM NaCl, 1.5 mM CaCl2, 1 mM EGTA, 0.005% Tween-20, pH 7.4; Langmuir 1:1 model. (In general: SPR reads the build-up and loss of mass on a sensor chip optically.)

pKd: −log10 of the molar value.

Chain of UniProt Q8WY21 (Q8WY21 34-1099): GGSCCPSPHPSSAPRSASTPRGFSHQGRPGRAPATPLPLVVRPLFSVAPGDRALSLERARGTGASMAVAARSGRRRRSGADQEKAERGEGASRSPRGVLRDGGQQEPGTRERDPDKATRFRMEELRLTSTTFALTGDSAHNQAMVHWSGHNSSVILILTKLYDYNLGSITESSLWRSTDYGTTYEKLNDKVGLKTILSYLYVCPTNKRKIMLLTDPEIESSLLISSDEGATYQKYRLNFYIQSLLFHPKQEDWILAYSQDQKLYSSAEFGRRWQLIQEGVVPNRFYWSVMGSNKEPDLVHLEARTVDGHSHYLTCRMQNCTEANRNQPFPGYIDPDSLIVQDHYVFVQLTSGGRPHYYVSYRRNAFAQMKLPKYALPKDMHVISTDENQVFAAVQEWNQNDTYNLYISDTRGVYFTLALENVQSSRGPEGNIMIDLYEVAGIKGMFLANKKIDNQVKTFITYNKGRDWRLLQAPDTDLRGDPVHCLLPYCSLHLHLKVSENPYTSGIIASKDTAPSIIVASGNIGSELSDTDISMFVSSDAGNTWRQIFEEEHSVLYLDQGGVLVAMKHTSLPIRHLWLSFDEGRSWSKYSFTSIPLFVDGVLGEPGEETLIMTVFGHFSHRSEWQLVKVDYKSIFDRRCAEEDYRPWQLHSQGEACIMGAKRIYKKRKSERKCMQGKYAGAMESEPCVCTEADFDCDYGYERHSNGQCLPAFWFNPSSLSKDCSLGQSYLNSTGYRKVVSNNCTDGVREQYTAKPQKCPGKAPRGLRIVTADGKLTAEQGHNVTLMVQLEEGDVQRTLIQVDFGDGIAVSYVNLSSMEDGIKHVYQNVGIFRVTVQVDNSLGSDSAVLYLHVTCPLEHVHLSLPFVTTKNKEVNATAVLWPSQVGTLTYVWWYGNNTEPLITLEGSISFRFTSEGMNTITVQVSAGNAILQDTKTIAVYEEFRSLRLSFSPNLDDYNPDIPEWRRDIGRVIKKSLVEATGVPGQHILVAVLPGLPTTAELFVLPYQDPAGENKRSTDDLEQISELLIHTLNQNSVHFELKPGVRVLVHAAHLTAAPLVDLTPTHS

For the substance mature BDNF (ligand), the pKd – broadly, −log10 of the Kd, conventionally taken in molar units – was 7.22.

These data come from paper PMC10540051.
